The target in experiment [1] is MART1 peptide on HLA-A*02:01 (human). Description: structural avidity; Jurkat 76 without CD8; graded A2/MART1 multimer; full-length, on cells.
Experiment [2] has the same target. The experiment is described as follows: IL-2 ELISPOT; Jurkat 76 without CD8; T2 + graded peptide; full-length, on cells.
Experiment [3] has the same target. Description: structural avidity; Jurkat 76/CD8; graded A2/MART1 multimer; full-length, on cells.
Experiment [4] shares this target. Description: IL-2 ELISPOT; Jurkat 76/CD8; T2 + graded peptide; full-length, on cells.

DMF5: the EC50 of multimer worked out at 0.022 µg/mL in experiment [1] and 0.013 µg/mL in experiment [3]. Besides, the EC50 of peptide in experiment [2] is 0.363 µg/mL; in experiment [4], 0.102 µg/mL.

(Values after publication PMC4814874.)
